For assay [1], the target named is T1, soluble human OSMR (Oncostatin M receptor) (human, UniProt Q99650 28-740).
T1 construct: extracellular domain; Bought; also called soluble OSMR
T1 sequence (looked up): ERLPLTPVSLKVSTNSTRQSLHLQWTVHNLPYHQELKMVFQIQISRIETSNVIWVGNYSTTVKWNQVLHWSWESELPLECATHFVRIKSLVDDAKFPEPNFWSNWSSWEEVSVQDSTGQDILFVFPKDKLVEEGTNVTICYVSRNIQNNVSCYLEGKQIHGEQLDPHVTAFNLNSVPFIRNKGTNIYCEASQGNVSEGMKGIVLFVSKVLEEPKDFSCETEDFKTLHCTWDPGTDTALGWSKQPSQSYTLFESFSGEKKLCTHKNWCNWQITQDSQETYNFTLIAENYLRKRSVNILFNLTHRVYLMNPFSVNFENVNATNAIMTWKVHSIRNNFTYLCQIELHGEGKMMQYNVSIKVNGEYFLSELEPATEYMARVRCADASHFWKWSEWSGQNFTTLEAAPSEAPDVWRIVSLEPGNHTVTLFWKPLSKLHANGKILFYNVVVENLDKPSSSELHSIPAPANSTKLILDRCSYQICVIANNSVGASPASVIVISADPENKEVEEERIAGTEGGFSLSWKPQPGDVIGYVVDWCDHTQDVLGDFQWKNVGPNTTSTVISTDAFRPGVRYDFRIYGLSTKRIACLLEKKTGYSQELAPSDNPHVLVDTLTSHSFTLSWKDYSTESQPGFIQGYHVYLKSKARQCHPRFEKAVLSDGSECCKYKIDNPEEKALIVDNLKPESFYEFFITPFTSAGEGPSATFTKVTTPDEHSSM
As to the kind of experiment: SPR (SensiQ), LIF immobilised, soluble OSMR injected (150nM, 100nM, 50nM, 25nM, 10nM, 5nM). Here is the method: (§1) Surface Plasmon Resonance (SPR): Kinetic parameters of the interactions between receptor domains and the cytokines LIF, OSM-WT, OSM-M1 or OSM-M2 were analyzed by SPR using the SENSIQ® system (ICX Technologies, Oklahoma City, Okla.) as described by the manufacturer protocol. Briefly, a carboxyl sensor with two channels was installed in SENSIQ® and allowed to thermally equilibrate for about 15 minutes. The channels were initially cleaned with a 3 minute injection of 0.1 M HCl. An activation solution of 2 mM 1-Ethyl-3-[3-dimethylaminopropyl]carbodiimide hydrochloride (EDC) and 0.5 mM N-hydroxysulfo succinimide (NHS) was prepared in deionized water immediately before injection. Activation solution was injected over both channels for approximately 3 minutes followed by a 10 minute injection of 50 μg/mL cytokine (LIF, OSM-WT, OSM-M1 or OSM-M2) in 10 mM acetate buffer, pH 5.0, over channel 1. […] Unreacted NHS esters were capped with a 3 minute injection of 1 M ethanolamine, pH 8.0, over both channels. […] A concentration series of soluble LIFR (# 249-LR-050/CF, R&D Systems, Minneapolis, Minn.), soluble OSMR (# 4389-OR-50, R&D Systems, Minneapolis, Minn.) or soluble gp130 (# 228-GP-050/CF, R&D Systems, Minneapolis, Minn.) in running buffer (10 mM HEPES pH 7.4, 150 mM NaCl, 3.4 mM EDTA, 0.005% Tween-20) were injected over both channels at a flow rate of 25 μl/min. […]

Assay [2] concerns the target T1, soluble human OSMR (Oncostatin M …). The assay can be described thus: SPR (SensiQ), OSM-M2 immobilised, soluble OSMR injected (150nM, 100nM, 50nM, 25nM, 10nM, 5nM). Here is the method:
as §1

Assay [3] has the same target. As to the kind of experiment: SPR (SensiQ), OSM-WT immobilised, soluble OSMR injected (150nM, 100nM, 50nM, 25nM, 10nM, 5nM). The method, then: as §1
Assay [4] shares this target. As to the kind of experiment: SPR (SensiQ), OSM-M1 immobilised, soluble OSMR injected (150nM, 100nM, 50nM, 25nM, 10nM, 5nM). Here is the method:
as §1

B1: human leukemia inhibitory factor (LIF) (ligand)
chain: not shown
notes: Purified recombinant protein; also called hLIF
With B1, the binding result in assay [1] was “no binding (tested: 150 nM)”.

B2: OSM-M2 (OSM with BC loop truncated from 12 to 4 amino acids) (ligand)
chain: AAIGSCSKEYRVLLGQLQKQTDLMQDTSRLLDPYIRIQGLDVPKLREHCRERPGAFPSEETLRGLGRRGFLQTLNATLGCVLHRLADLEQRLGGGNIEDLEKLQMARPNILGLRNNIYCMAQLLDNSDTAEPTKAGAGASQPPTPTPASDAFQRKLEGCRFLHGYHRFMHSVGRVFSKWGESPN
notes: Made from the 'AGA' modified OSM template; lacks the thrombin site; not shown: N-terminal FLAG tag left after thrombin removal of GST
As for B2, in assay [2], the binding result is “no binding (tested: 150 nM)”.

B3: OSM-WT ('AGA' modified human Oncostatin M, referred to as wild-type OSM) (ligand)
chain: AAIGSCSKEYRVLLGQLQKQTDLMQDTSRLLDPYIRIQGLDVPKLREHCRERPGAFPSEETLRGLGRRGFLQTLNATLGCVLHRLADLEQRLPKAQDLERSGLNIEDLEKLQMARPNILGLRNNIYCMAQLLDNSDTAEPTKAGAGASQPPTPTPASDAFQRKLEGCRFLHGYHRFMHSVGRVFSKWGESPN
notes: also called hOSM with AGA modification; not shown: N-terminal FLAG tag left after thrombin removal of GST
Turning to B3, in assay [3], the binding result is listed as “no binding (tested: 150 nM)”.

B4: OSM-M1 (OSM with BC loop truncated from 12 to 7 amino acids) (ligand)
chain: AAIGSCSKEYRVLLGQLQKQTDLMQDTSRLLDPYIRIQGLDVPKLREHCRERPGAFPSEETLRGLGRRGFLQTLNATLGCVLHRLADLEQRLGAPSGLNIEDLEKLQMARPNILGLRNNIYCMAQLLDNSDTAEPTKAGAGASQPPTPTPASDAFQRKLEGCRFLHGYHRFMHSVGRVFSKWGESPN
notes: as for B2
Regarding B4, the binding result in assay [4] is listed as “no binding (tested: 150 nM)”.
